# In patent US20100247589A1:
# Where no end group is shown, it is not given here. The star is where a group is joined. Biotin = O=C1N[C@H]2[C@H](CS[C@H]2CCCCC(=O)*)N1
# Target: tooth pellicle (thin film derived from salivary glycoproteins, formed in a human mouth) (human)
# Test: ELISA, 20 uM biotinylated peptide on pellicle-coated bovine enamel, streptavidin-HRP, normalized to DenP03; no-peptide control -0.001
row,Binder,O.D.450 (normalized)
1,SSRPTTYHYKNIYQESYQQRNPAVK(Biotin) [DenP3-A],1
2,SSRPAPPTYQTASYPHNLPSKRKMK(Biotin) [DenP28-A],0.811
3,SSRPQVPDYLSPTHQKKAFLEIPTK(Biotin) [DenP29-A],0.468
4,SSRPHKNENIMQYNVNDRWHITPAK(Biotin) [DenP32-A],1.14

# Target: tooth pellicle (thin film derived from salivary glycoproteins, formed in a human mouth) (human)
# Test: phage ELISA on pellicle-coated bovine enamel, anti-M13-HRP, normalized to internal control
row,Binder,O.D.450 (normalized)
1,TTYHYKNIYQESYQQRNPAV [DenP3],2.5

# Target: tooth pellicle (thin film derived from salivary glycoproteins, formed in a human mouth) (human)
# Test: phage ELISA on 30 min pellicle-coated bovine enamel, anti-M13-HRP, normalized to DenP3; no-phage control 0.094
row,Binder,O.D.450 (normalized)
1,TTYHYKNIYQESYQQRNPAV [DenP3],1
2,AIEYQHSATTPWTMRTRLPP [DenP101],0.467
3,EFYPFAEVPPEKSGIGRQVF [DenP102],0.52
4,GVHQYSRPTVPSYLWTSGQH [DenP103],0.879
5,GYQPHYVDHTIGWQPMIRPN [DenP104],0.79
6,QFNQTSHSFMHGTSGYVPGK [DenP105],0.47
7,SFSWHRGDWELGHQSKTMGM [DenP106],1.52
8,SMWHDITKRYRNPSEMVSAY [DenP107],0.726
9,THGNKHQSWTYPSEINHKNY [DenP108],1.15
10,WHEPHQFSGENTDYSSSMGT [DenP109],0.716

# Results, then the binder that gave them:
row,O.D.450 (normalized),Binder
1,1.05,DGYKLQTSLDWQMWNP [DenP111]
2,0.413,FPSKWYNHHRHITGHV [DenP112]
3,1.35,GGMGALESYRQWNHLA [DenP113]
4,0.703,GINKGQRPPWESWHEN [DenP114]
5,0.501,GYGQYVSQQTWAHSNK [DenP115]
6,1.05,HDHLSWWGQFDRQNLL [DenP116]
7,0.433,MPGHQESIKVQNWNRV [DenP117]
8,0.641,NLHSPWPSHAAHHWST [DenP118]
9,1.05,NQQMKLVPQHWHRAQP [DenP119]

# Target: tooth pellicle (thin film derived from salivary glycoproteins, formed in a human mouth) (human)
# Test: ELISA titration of biotinylated peptide on pellicle-coated bovine enamel, streptavidin-alkaline phosphatase, 4-MUP fluorescence, Scatchard plot
row,Binder,MB50 [µM]
1,SSRPTTYHYKNIYQESYQQRNPAVK(Biotin) [DenP3-A],28
2,SSRPHKNENIMQYNVNDRWHITPAK(Biotin) [DenP32-A],25
